# According to the DeepSol protein solubility set:
# Assay: soluble on expression in E. coli; label from the status in PepcDB or PDB records
row,Sequence,soluble on expression in E. coli
1,MIYIGLPQWSHPKWVRLGITSLEEYARHFNCVEGNTTLYALPKPEVVLRWREQTTDDFRFCFKFPATISHQAALRHCDDLVTEFLTRMSPLAPRIGQYWLQLPATFGPRELPALWHFLDSLPGEFNYGVEVRHPQFFAKGEEEQTLNRGLHQRGVNQVILDSRPVHAARPHSEAIRDAQRKKPKVPVHAVLTATNPLIRFIGSDDMTQNRELFQVWLQKLAQWHQTTTPYLFLHTPDIAQAPELVHTLWEDLRKTLPEIGAVPAIPQQSSLF,soluble
2,AHHHHHHGSTQKKLIEYTNPSTSRRKITRIPIDSPDYPPLLKQIKDPPKIIYAIGNVRLLNKPAVAIVGTRQPSERGEYYAEKVAEFYAKQGFVIVSGLALGIDSIVIKTALKTGAHVIGVLPSPVNDIVPKSNEKLAEKIIRSGGLLISELPEGTKPKKYHFVRRNRIISGISFAVVVIESELKDGTMHTVKFAKQQRRIILVTNLPASGNAKLKNEGFPILDF,soluble
3,MTEDNIAPITSVKRLVTDKCTYKDNELLTKYSYENAVVTKTASGRFDVTPTVQDYVFKLDFEKKPEKLGIMLIGLGGNNGSTLVASVLANKHNVEFQTKAKGVKQPNYFGSMTQCSTLKLGIDAEGNDVYAPFNSLLPMVSPKHFVVSGWDINNADLYEAMQRSQVLEYDLQQRLKAKMSLVKPLPSIYYPDFIAANQDERANQCINLDEKGNVTTRGKWTHLQRIRRDIQNFKEENALDKVIVLWTANTERYVEVSPGVNDTMENLLQSIKNDHEEIAPSTIFAAASILEGVPYINGSPQNTFVPGLVQLAEHEGTFIAGDDLKSGQTKLKSVLAQFLVDAGIKPVSIASYNHLGNNDGYNLSAPKQFRSKEISKSSVIDDIIASNDILYNDKLGKKVDHCIVIKYMKPVGDSKVAMDEYYSELMLGGHNRISIHNVCEDSLLATALIIDLLVMTEFCTRVSYKKVDPVKEDAGKFENFYPVLTFLSYWLKAPLTRPGFHPVNGLNKQRTALENFLRLLIGLPSQNELRFEERLL,soluble
4,MDDNQIINLFFQRNEDAINAVDEKYGSKLNALAANILQSREDGLECVNDMYMKAWNSIPPARPEYLFAFLATSARNIAIDMIRKNNAGKRQAKVVELTKELEECIGDGGLQTHLDKEDIGEMLSHFLETVDKNKRIIFLRRYWYSDSIKDISERMQMSESAVKVTLHRTRKELRKYLESEGLYL,not soluble
5,MGSDKIHHHHHHLDDLSEFVDQVPLLDHHCHFLIDGKVPNRDDRLAQVSTEADKDYPLADTKNRLAYHGFLALAKEFALDANNPLAAMNDPGYATYNHRIFGHFHFKELLIDTGFVPDDPILDLDQTAELVGIPVKAIYRLETHAEDFMLEHDNFAAWWQAFSNDVKQAKAHGFVGFKSIAAYRVGLHLEPVNVIEAAAGFDTWKHSGEKRLTSKPLIDYMLYHVAPFIIAQDMPLQFHVGYGDADTDMYLGNPLLMRDYLKAFTKKGLKVVLLHCYPYHREAGYLASVFPNLYFDISLLDNLGPSGASRVFNEAVELAPYTRILFASDASTYPEMYGLAARQFKQALVAHFNQLPFVDLAQKKAWINAICWQTSAKLYHQERELRV,not soluble
6,MGSDKIHHHHHHMKVTLKTLTPLHIGSGEKYPPCNLVVLKEEENKKTAVRLITRKFLEVLRKHPEIKQNISENISKPLSFKEVENVEDGVFYEVSLYSDFSSGKKNPEIPEVVHHPDGSVYVPGSSLKGAVRLALTWHVLRNNRNLLEEFRRNVQKDLQNHKRAFYQTNEFLNGLFRFAPKEINTDYFRFLRVSDSQTLRTQLVVHDVGIFYVARPNTHPRTFPLEFVPINRDFVFDVRFVKEEYDYFLTHVRKRYGVELPGSIEEIFSIVNEFYSEVFKFERERFKKAKENFEKLDTSKIEERFQKIEKVLQSKKYVLIHIGYGGGLMANSLFILLDEETRKQVRNIIKYHKDDEAPLTRRYLVQSENNSYRVISPIGWCALWLEDSQST,not soluble
7,MQGVQEQIEELQTKLAFQELTVEELNQEVIKLNQLVAHQQHQIQLLIGKLQAIEPSNMATQAEETPPPHY,soluble
8,MAHHHHHHMPGFADSFNGVAVGSSTMLTRGTHSSQDAVHHTDTATAAEWRALYGASADMMNSTAHTYRACGAGVSYMTPIFHLTANDVTILSMEHNNHCRLLGIATSKNQIFVTWTQVMPVIENMGMLRAPDDDLFGGEQATPVDERLLEWDPATMSILIDELPYTCTELSWAPWQQGIYLAGLCPGHGIRLYRYSHGNWALDDCIRSTESVSCSISTNFTVACACRRGRVELWVRGSTASGTAVAPGPSPSLSAGDSTATNGGDGVSHTSWVLCRVLTLPFSEDDNGGSRTHDGDRSGGAGSPSAVAARHRRRDILGVAWVESGALLAAGDQGGSVYVVAATQDSTRLGEVVYHQLPSALCGPCKQVAWSPSSGRSFLCLAMVFTTCVRLVLFRRPSFMNAAGLPHAARSVGGSGGGRMGWAHSSVAPIAASSLEVLAMTQVPCEEVAKLSWNNTGTRFVTAHLDSSVNIWAVDFRYRHPVKGDGANATSGREEANTLHSVDSARMDRQVETSVFAAAGEERLGIVVSVQCTSAVHPYHAVSK,not soluble
9,MAHHHHHHMNRGCLLGEYTGRCLGESAHVRSNLICALCCVTRSQIIYIYIYIYFAVVVEEVPIVTCTNIIMSSVVSRREETHFCLRYFRIPSNKKNVFSLLYRQLLFNSLINHCF,not soluble
10,MAHHHHHHSLNDELKNKSGKVKVMYVRSDDDSDKRTHNPRTGKGGGRPAKSRTDGGRRPARDERNNQSRDRKHETSPWRTVSRAPGDETPEKVDHGGISGKSFIDPEVLRRQRAEETRVYGENACQALFQSRPDAIVRAWFIQSVTPRFKEALRWMAANRKAYHVVDEAELAKASGTEHHGGVCFLIKKRNGTTVKQWVKQAADQDCVLALEDVANPHNLGGMMRSCAHFGVKGVVVQDAALLESGAAIRTAEGGAEHVQPITGESIVDVLDDFRQAGYTVVTTSSDRGQALFSTTLPEKMVLVLGREYDYLPEAAREPDDLCVKINGTGNVESLNVSVATGVLLAEWWRQNKAEG,soluble
11,MASWSHPQFEKGALEDPRSLYDLPPYGDATLLYFSDLHGQAFPHYFMEPPNLIAPKPLMGRPGYLTGEAILRYYGVERGTPLAYLLSYVDFVELARTFGPIGGMGALTALIRDQKARVEAEGGKALVLDGGDTWTNSGLSLLTRGEAVVRWQNLVGVDHMVSHWEWTLGRERVEELLGLFRGEFLSYNIVDDLFGDPLFPAYRIHRVGPYALAVVGASYPYVKVSHPESFTEGLSFALDERRLQEAVDKARAEGANAVVLLSHNGMQLDAALAERIRGIDLILSGHTHDLTPRPWRVGKTWIVAGSAAGKALMRVDLKLWKGGIANLRVRVLPVLAEHLPKAEDVEAFLKAQLAPHQDHLFTPLAVSETLLYKRDTLYSTWDQLVGEAVKAIYPEVEVVFSPAVRWGTTILPGQAITWDHLYAYTGFTYPELYLFYLRGAQIKAVLEDIASNVFTSDPFYQQGGDVSRVFGLRYVLDPDAPTGERVREVEVGGRPLDPNRRYLAAAYGGRLQRVGEAKPGYEPRPIYEVLAEYLRSVGRVRVRPEPNVKVIGRNYRLPEVTG,soluble
12,MAHHHHHHMPNNDSHDAQLLRHYAQFFPNVLFTSEEEMEKYCQDARPDAVKKVLDLPEGEEVPEDAMNDPRAHLYILKHIVGRNATTAAFVALRGSDKQKVVAKFIMLNDEKQAAYARSEVHCLAACDHFGIVKHYDDLKSEDKLLLIMEYGSGGDLNKQIKQRLKERLPFKEHEAGLLFYQIVLALDEVHSRKMMHRDLKSANIFLMPTGIIKLGDFGFSKQYTDSVSLDVGSSFCGTPYYLAPELWERKRYSKKADMWSLGVILYELLTLHRPFKGPSQREIMQQVLYGNYDPFPCGVSDGMKAVMEPLLSKDPALRPTTTQLLHTELMKYVANIFEEIVRNSEVIEKHDKERILRQLAESRAKAPPPNSIQAGAVSNDVVREGYLLKYSSDMKWKKRYFSIKNGQLRISLTDNPEKDGVSPKSASLETVNDVFPVPEAYCRSNPHQLVIWFTNGQKIIAMAKSAEERDQWISDFQRACGM,soluble
13,MAHHHHHHMSRSSLIFENNNDNNEKKKRKLFQDEYNYQSCYPLSYLNVYNNNNNNNHNSNNNSNNDNNRIYDYAYSQSYNYTYDQTYNDVYNKIYNDSKNIAQNVLNVQVNEEPYDKSLNNSHTTYPFSNIINSNQLNSNILNNNEMIDMRNFYENGNFVNPMIENKDQNQFNEPNKNNLNNTMANVNNINNINNIQFDKSLLINCIDVLLNFMNYNNLKDTITEETLHENLINLRFYILRLNGGKVSQKKITEYFHKM,not soluble
14,MVTEQEIEAIGKTLVDPKQPLQARFRALFTLRGLGGPDAISWISRGFEDSSALLKHELAYCLGQMRDVRAIPVLVGVLQDTSQEPMVRHEAGEALGAIGNPEVLGLLKQYSTDPVVEVAETCQLAVGRLEWLQQHPGEATCAGPYLSVDPAPPAAEQDVGRLREALLDEARPLFERYRAMFALRNVGGKEAALALAEGLQCGSALFRHEVGYVLGQLQHEAAVPGLAATLARTTESPMVRHECAEALGAIARPACLAALREHIEDPEQVVRESCEVALDMYEYESSQDFQYADGLERLRPPP,soluble
15,MLEDMSKDALFYNYYAQWIEVYKKDAIREATMAKYRMTQKWVEKLAPELKVCELTRTAYQKILNDYAKEHERQTTLDFHHQLKGAVMDAVDEGLIERDPTRKAIIKGKTPREKKIKYLNQFELHTLIADLDIKEEPNWDWFILLVAKTGMRFSEALAITPKDFDFGRQTLSISKTWDYKGKGGFLPTKNKSSVRKIQIDWQIVVKFSELIKGLPEDEPIFVGEEKIYNSTVNDALTRHCKACGISEISIHGLRHTHASLLLFAGVSIASVARRLGHASMTTTQKTYLHIIQELENKDVDLVMRTLSGL,soluble
16,NFMLNQPHSVSESPGKTVTISCTRSSGNIDSNYVQWYQQRPGSAPITVIYEDNQRPSGVPDRFAGSIDRSSNSASLTISGLKTEDEADYYCQSYDARNVVFGGGTRLTVLG,soluble
17,MGSDKIHHHHHHMKTFHNEEIYIKTDNFSDSIFKENTMFFDIETTGFSPVKAIVYMIGCARRIKNRIVIDQYFAESVDDEAAVIEAFAGSLSGCSTIISFNGVGFDIPFLKNKYKKYKQEDPFCNVQILDIFKELSPIKPLLCLENYKQKSIEAFLGIDREDKYSGGELINVYYEYLAQKDDEKLSLLLTHNYEDVLGMTKLLSILSYKECIHGIADITGVSVNPYTAYDGSLMNELIISFENKFSVPKSVSFHDNDIYLTIGTTKSYVRAEIFEGEMRHFYSDYKNYYYLPKEDMAIHKSVAAYVDHEYREKCKAYNCYVRKTGTFIRQYSDFMKPEFRFDIKDKYSYFLLTEDFINSKQMVLSYVKHITDHLFNL,not soluble
18,MTICSVNNVTKSFGGNIIFENISLEIKNGERVGLVGRNGSGKTTIFQLLTGMESLDAGAIHMKKGTRIGHVAQIPKFDESMTVYEVLSSAFKIEKELEREMRTLEKDMAEEQESSVLQKLMERYGIIQEKFAFLGGYEIEANIMKVANGLQVTELFPRSFLELSGGEQTKVSLAYMLLQKPDLLLLDEPTNHLDLFAVEWLEQFLKEYNGTVMVISHDRYFLDEVVTKIFDLEDGEIHVYHTNYSRFVEEKEERLLQEFQAYQEQQKKIKKMKEAIKRLREWANQANPPNEGLHKRARSMERALERMQKLKKPILERKQIGLQFEGQDRSGKDVVVIKEVSKGFADHPLFNEVNLHVRFQERAAIVGRNGTGKTTLLKLLLEEIEPDAGEIRIGSSVKIGYLSQHAYGNMKSDVLEAFREYVAVTEGEARHILAKFLFYGPAVFKKVTQLSGGEKMRLRLAQLMYQDINFLILDEPTNHLDIESREVLEEALEQYNGTILAVSHDRYFLNKLFEKTYWIDEHKLFEFAGNYAWARQKWEERLETQVIKQQRQGRKSIETAPVKKKEARNIEEIETELMHVEEDIYTLECTMEHVVDIKRLEQLYEEKTKKELLRAELYNELENIVE,not soluble
